# Measurements from patent US7144862B2, “Orally administered peptides to ameliorate atherosclerosis” (The Regents of the University of California, priority 2000, dated 2006).
# Entries after “also recorded” stand apart in the source; their conditions may differ. Non-standard residues stand in square brackets, D forms with d. Residues, ends and D or L forms follow the SMILES beside them.
# Key:
# [1] = system: red blood cells of LDL receptor deficient mice; assay: In vitro red cell lysis after gavage of D peptides; format: in vivo, mouse; conditions: 100 μg by gavage, blood 17 and 48 hrs later
# Procedure: Red cells were separated by centrifugation, were diluted to 10% hematocrit with PBS and incubated at 37° C. with gentle mixing. Aliquots were removed at time points t=0, 2, 6 and 18 hrs, cell pellets spun down and the optical density due to the released hemoglobin determined.
# [2] = system: Human aortic wall cocultures; assay: LDL plus peptide in vitro in human aortic wall cocultures, monocyte chemotactic activity (Example 2); format: cell-based; conditions: control LDL 250 μg/ml plus varying amounts of peptide
# Procedure: Human aortic wall cocultures were incubated with medium alone (LDL, NO CELLS or CELLS, NO LDL, see FIG. 9), control LDL from normal subjects at 250 μg/ml (LDL) and LDL plus control HDL from normal subjects at 350 μg/ml (+HDL). Other cocultures were incubated With the control LDL together with varying amounts (micrograms shown on the abscissa) of either D-2F, or L-2F (third panel from the left, 2F) or D-37-pA or L-37pA (last panel on the right, 37pA). The data represent mean±SD of values obtained from quadruplicate cocultures.
# [3] = system: human artery wall cell cocultures; assay: Lipoproteins from mice given peptide by gavage tested in human artery wall cell cocultures (monocyte chemotactic activity); conditions: for resistance of circulating mouse LDL to oxidation (monocyte chemotactic activity): 100 μg by gavage, LDL receptor-deficient mice, blood 17 hrs later
# Procedure: Groups of LDL receptor-deficient mice (n=3) were administered the D-peptides or the saline vehicle by gavage. […] Blood was collected from retroorbital sinus under mild anesthesia 17 hrs later. LDL was isolated from plasma by FPLC. Cocultures of artery wall cells were incubated with medium alone (NO ADDITION), control LDL from normal subjects (LDL), LDL plus control HDL from normal subjects (+HDL). […] The cocultures were incubated for 4 hrs at 37° C. in the presence of 10% LPDS. The supernatants were then discarded, the cocultures were washed and incubated with culture medium without serum or LPDS for an additional 4 hrs. This conditioned medium was collected and analyzed for monocyte chemotactic activity. The values are mean±SD of quadruplicate cocultures.
# Blood was collect after 6 hrs, plasma HDL and LDL were isolated by gel filtration (FPLC) and examined in the cocultures. […] Human LDL at 200 μg protein/ml was added to human artery wall cell cocultures together with human HDL (hHDL) at 350 μg protein/ml or mouse HDL (mHDL) at 100 μg cholesterol/ml taken from mice that received saline (Saline Rx) or L-4F (L-4F Rx) or D-4F (D-4F Rx) and monocyte chemotactic activity was determined as described herein. […] On the right, mouse LDL (mLDL) was isolated from mice receiving saline (Saline Rx) or L-4F (L4F Rx) or D-4F (D-4F Rx) and was added at 100 μg cholesterol/ml to the artery wall cell cocultures without HDL and monocyte chemotactic activity determined. Values are mean±SD) for four wells in two independent experiments.
# Either saline or 2F synthesized from D amino acids or from L amino acids was instilled in the stomachs of mice by gavage (instillation in the stomach by tube). After gavage the mice were bled and their LDL isolated and added to the human artery wall cell cocultures.
# The animals were bled 1.5, 3 or 6 hours later and their HDL, LDL, and VLDL/IDL isolated.
# Human aortic endothelial and smooth muscle cells were isolated and cultured as previously described (Id.). Cellular oxidation of LDL in the presence and absence of HDL was determined as described (Id.). Human blood monocytes were isolated after obtaining informed consent and monocyte chemotaxis was determined as described previously^5.
# [4] = Antibody formation against D-2F (other studies); format: in vivo
# [5] = Antibody detection by indirect ELISA after 16 weeks of daily injection; format: in vivo, mouse; conditions: plasma at conclusion of 16-week injection period
# Procedure: To determine whether daily injections of peptides elicited any immune response in mice, indirect ELISA titration (Engvall (1980) Meth. Enzymol. 70:419–439) was carried out with plasma taken from mice at the time of organ collection (following sixteen weeks of daily injection). Plates were coated with the injected peptides or MoAI (10 μg/ml). Plates were incubated overnight. After thorough washing with borate buffered saline (pH 8.2) containing 0.05% Tween 20, and blocking with buffer (0.1% gelatin and 0.1% BSA in borate buffer) for 1 h, 200 μl of the diluted mouse plasma (1:100 dilution) samples were serially diluted 1:1 with borate-buffered saline. Biotinylated goat antibody to mouse IgG (0.1 μg/ml) was then added to the wells and the plates were treated with SA-HRP (Streptavidin-horse radish peroxidase) for an hour and developed with ABTS and peroxide as substrate. The plates were incubated overnight at room temperature after every addition of antigen/antibody and washed thoroughly with borate buffered saline (pH 8.2) containing 0.05% Tween 20, and blocked with buffer (0.1% gelatin and 0.1% BSA in borate buffer) for 1 h before the next addition.
# [6] = Survival, toxicity, body and liver weights after 16 weeks of injection
# Procedure: Mice were acquired at six weeks of age, and randomized into groups of 20, except that a negative control group of 10 received no treatments and was given standard rodent chow. At eight weeks of age, the treatment groups were placed on a modified Thomas-Hartroft atherogenic diet (#TD88051; Teklad, Madison, Wis.), and injections were begun. […] Animals were injected intraperitoneally daily for 16 weeks, including weekends and holidays.
# At the end of the study (week 16), at the last bleeding, the heart and the liver were excised. […] The livers were removed and weighed.
# [7] = Plasma cholesterol lipoprotein profiles (CLiP); format: in vivo, mouse; conditions: 16 weeks atherogenic diet, daily i.p.
# Procedure: Plasma cholesterol lipoprotein profiles were measured using our recently-developed CLiP method (Garber et al. (2000) J. Lipid Res. 41:1020–1026). Briefly, 5 to 10 μl of plasma were analyzed using a single Superose 6 (Pharmacia, Piscataway N.J.) column. Immediately following the column, cholesterol reagent was introduced through a mixing tee, and the eluent:reagent mixture entered a post-column reaction coil. Cholesterol content of the eluent mixture was spectrophotometrically detected at 500 nm, and data points were collected into a computer. The resulting profiles were decomposed into component peaks and analyzed for relative area using PeakFit (SPSS Science, Chicago, Ill.); absolute cholesterol values for total cholesterol and each component peak were determined by comparison with a control sample of known values. In some cases fractions were collected to determine distribution of radioactivity. The CLiP method allowed analysis of individual mouse samples, avoiding the use of pooled samples.
# [8] = mouse, in vivo
# Procedure: The 5F peptide, MoAI, and human apo A-I were labeled with ^125I by the method of Bilheimer et al. (1972) Biochim. Biophys. Acta 260: 212–221. Mice were placed on a modified Thomas-Hartroft atherogenic diet (#TD88051; Teklad, Madison, Wis.) for four weeks at which time daily intraperitoneal injections of peptide or protein dissolved in 200 μl phosphate-buffered saline (PBS) were begun. Animals injected with MoAI or human apo A-I received 50 μg per animal; those injected with 5F received 20 μg. Animals were not fasted for the kinetic studies and blood samples were taken under xylazine:ketamine anesthesia from the retro-orbital sinus at 15, 30, and 45 minutes, and 1, 1.5, 2, 3, 4, 6, 8, 12, and 24 hours following injection. Each animal provided three blood samples at different time points (all retro-orbital and alternating eyes), and at least three samples were collected (from different animals) at each time point. Samples were collected into heparinized capillary tubes, then placed in microcentrifuge tubes; the plasma was separated by centrifugation. Duplicate 10 μl aliquots of each sample were taken for radioactivity determination, using gamma counting (Cobra; Packard Instruments, Downers Grove, Ill.) for 10 minutes per sample. Total plasma volume was calculated as 4.2% body weight. Each sample was expressed as percent of injected CPM in total plasma. Free ^125I was determined by trichloroacetic acid (TCA) precipitation (1 ml of 10% TCA per 10 μl plasma sample). Fitting to the kinetic model was done using all data points, rather than averages at each time point (PKAnalyst, MicroMath Scientific Software, Salt Lake City, Utah).
# Treatment groups were compared by two-tailed t-tests or one way analysis of variance (where the data were normally distributed), or by one way analysis of variance on ranks (SigmaStat; SPSS Science, Chicago, Ill.). Kinetics of peptide or protein turnover were analyzed by fitting to a first order one-compartment kinetic model assuming non-equal input and output rates (PKAnalyst; MicroMath Scientific Software, Salt Lake City, Utah).
# [9] = system: C57BL/6J mice fed an atherogenic diet; assay: Aortic lesion formation, daily intraperitoneal injection for 16 weeks, atherogenic diet; format: in vivo, mouse; conditions: 5F 20 μg or MoAI 50 μg daily i.p.
# Procedure: The livers were removed and weighed.
# Histological evaluations were performed according to the method of Paigen et al. (Paigen et al. (1990) Arteriosclerosis 10: 316–323) with some modifications. Briefly, hearts were fixed for at least one week in the phosphate-buffered formaldehyde solution. After removing the lower ⅔ of the hearts, the remaining tissue was frozen in OCT medium (Tissue-Tek, Miles Inc., Elkhart, Ind.) and sectioned in a cryostat at −20° C. Alternate 20 μm sections were saved on slides, and observed for the beginning of the aortic root. Sections were then collected for an additional 600 μm, or until the aortic cross-section was rounded and the valve cusps were no longer evident. Slides were stained with Oil Red O, and counterstained with hematoxylin. Stained lesion cross-sectional areas were measured in consecutive slides 80 μm apart by image analysis (SigmaScan Pro, SPSS Scientific, Chicago, Ill.), and the average lesion area was determined for each aortic sinus over the 400 μm length (five slides) providing the greatest mean lesion area.
# [10] = after 16 weeks, atherogenic diet, daily i.p., mean ± SEM
molecule,measurement,setting,value
CC(C)C[C@@H](NC(=O)[C@@H](Cc1c[nH]c2ccccc12)NC(=O)[C@H](N)CC(=O)O)C(=O)N[C@H](CCCCN)C(=O)N[C@H](C)C(=O)N[C@H](Cc1ccccc1)C(=O)N[C@H](Cc1ccc(O)cc1)C(=O)N[C@H](CC(=O)O)C(=O)N[C@H](CCCCN)C(=O)N[C@@H](C(=O)N[C@H](C)C(=O)N[C@H](CCC(=O)O)C(=O)N[C@H](CCCCN)C(=O)N[C@H](CC(C)C)C(=O)N[C@H](CCCCN)C(=O)N[C@H](CCC(=O)O)C(=O)N[C@H](C)C(=O)N[C@H](Cc1ccccc1)C(=O)N1CCC[C@@H]1C(=O)N[C@H](CC(=O)O)C(=O)N[C@H](Cc1c[nH]c2ccccc12)C(=O)N[C@H](CC(C)C)C(=O)N[C@H](CCCCN)C(=O)N[C@H](C)C(=O)N[C@H](Cc1ccccc1)C(=O)N[C@H](Cc1ccc(O)cc1)C(=O)N[C@H](CC(=O)O)C(=O)N[C@H](CCCCN)C(=O)N[C@@H](C(=O)N[C@H](C)C(=O)N[C@H](CCC(=O)O)C(=O)N[C@H](CCCCN)C(=O)N[C@H](CC(C)C)C(=O)N[C@H](CCCCN)C(=O)N[C@H](CCC(=O)O)C(=O)N[C@H](C)C(=O)N[C@H](Cc1ccccc1)C(=O)O)C(C)C)C(C)C [Peptide D-37pA] (H-[dD][dW][dL][dK][dA][dF][dY][dD][dK][dV][dA][dE][dK][dL][dK][dE][dA][dF][dP][dD][dW][dL][dK][dA][dF][dY][dD][dK][dV][dA][dE][dK][dL][dK][dE][dA][dF]-OH),red cell lysis (hemolysis) after gavage,[1],resistant to hemolysis
same,monocyte chemotactic activity induced by LDL treated with peptide in vitro,[2],significantly different from LDL
same,resistance of circulating mouse LDL to oxidation (monocyte chemotactic activity),[3],resistant to oxidation
"CC(=O)N[C@H](CC(=O)O)C(=O)N[C@H](Cc1c[nH]c2ccccc12)C(=O)N[C@H](CC(C)C)C(=O)N[C@H](CCCCN)C(=O)N[C@H](C)C(=O)N[C@H](Cc1ccccc1)C(=O)N[C@H](Cc1ccc(O)cc1)C(=O)N[C@H](CC(=O)O)C(=O)N[C@H](CCCCN)C(=O)N[C@@H](C(=O)N[C@H](C)C(=O)N[C@H](CCC(=O)O)C(=O)N[C@H](CCCCN)C(=O)N[C@H](CC(C)C)C(=O)N[C@H](CCCCN)C(=O)N[C@H](CCC(=O)O)C(=O)N[C@H](C)C(=O)N[C@H](Cc1ccccc1)C(N)=O)C(C)C [Peptide D-2F, Ac-D-W-L-K-A-F-Y-D-K-V-A-E-K-L-K-E-A-F-NH2] (Ac-[dD][dW][dL][dK][dA][dF][dY][dD][dK][dV][dA][dE][dK][dL][dK][dE][dA][dF]-NH2)",red cell lysis (hemolysis) after gavage,[1],resistant to hemolysis
same,monocyte chemotactic activity induced by LDL treated with peptide in vitro,[2],significantly different from LDL; also recorded: equally able to block LDL oxidation and LDL-induced monocyte chemotactic activity
same,resistance of circulating mouse LDL to oxidation (monocyte chemotactic activity),[3],resistant to oxidation
same,monocyte chemotaxis induced by LDL from mice given 2F by gavage,[3]; D versus L form by gavage,reduced monocyte chemotaxis
same,antibody formation against the peptide,[4],not seen evidence of antibody formation
"Mouse apo A-I: mouse apo A-I isolated from the plasma of C57BL/6J mice (protein, UniProt Q00623 25-264, looked up) Apolipoprotein A-I: DEPQSQWDKVKDFANVYVDAVKDSGRDYVSQFESSSLGQQLNLNLLENWDTLGSTVSQLQERLGPLTRDFWDNLEKETDWVRQEMNKDLEEVKQKVQPYLDEFQKKWKEDVELYRQKVAPLGAELQESARQKLQELQGRLSPVAEEFRDRMRTHVDSLRTQLAPHSEQMRESLAQRLAELKSNPTLNEYHTRAKTHLKTLGEKARPALEDLRHSLMPMLETLKTQVQSVIDKASETLTAQ",antibodies against the injected material,[5],No antibodies were detected
same,toxicity,[6]; 16 weeks daily i.p. injection,No toxicity
same,Body Weight,[6]; [10],21.16 ± 0.34 g
same,Liver Weight,[6]; [10],1.72 ± 0.04 g
same,Liver: Body (percentage),[6]; [10],8.15 ± 0.23%
same,mice died from unexplained causes,"[6]; during the prolonged diet studies, groups of 20",Two
same,HDL as percent of total cholesterol,[7],(9.34 ± 1.19%*)
same,IDL + LDL as percent of total cholesterol,[7],(42.44 ± 2.46%)
same,VLDL as percent of total cholesterol,[7],(48.23 ± 2.75%)
same,HDL cholesterol,[7]; mean ± SEM,19.50 ± 3.07 mg/dL
same,IDL + LDL cholesterol,[7]; mean ± SEM,87.86 ± 8.34 mg/dL
same,TC (total cholesterol),[7]; mean ± SEM,207.45 ± 16.94 mg/dL
same,VLDL cholesterol,[7]; mean ± SEM,100.08 ± 9.73 mg/dL
same,Max. % in plasma,[8],13.5%
same,Time (h) to max. CPM,[8]; ip,1.74 h
same,T½,[8]; ip,15.7 h
same,mean lesion cross-sectional area compared with PBS-injected animals,[9],no difference in lesion area
